According to patent publication US20220073608A1 (JIANGSU HUAIYU PHARMACEUTICAL, published 2022):
Numbering of substitutions follows the chain as printed.

T1: human SEMA4D, full length, on CHO-K1 cells (CHO-K1 hSEMA4D) (human, UniProt Q92854 22-862)
T1 construct: whole, on cells; also called human SEMA4D recombinant cells
T1 sequence (looked up): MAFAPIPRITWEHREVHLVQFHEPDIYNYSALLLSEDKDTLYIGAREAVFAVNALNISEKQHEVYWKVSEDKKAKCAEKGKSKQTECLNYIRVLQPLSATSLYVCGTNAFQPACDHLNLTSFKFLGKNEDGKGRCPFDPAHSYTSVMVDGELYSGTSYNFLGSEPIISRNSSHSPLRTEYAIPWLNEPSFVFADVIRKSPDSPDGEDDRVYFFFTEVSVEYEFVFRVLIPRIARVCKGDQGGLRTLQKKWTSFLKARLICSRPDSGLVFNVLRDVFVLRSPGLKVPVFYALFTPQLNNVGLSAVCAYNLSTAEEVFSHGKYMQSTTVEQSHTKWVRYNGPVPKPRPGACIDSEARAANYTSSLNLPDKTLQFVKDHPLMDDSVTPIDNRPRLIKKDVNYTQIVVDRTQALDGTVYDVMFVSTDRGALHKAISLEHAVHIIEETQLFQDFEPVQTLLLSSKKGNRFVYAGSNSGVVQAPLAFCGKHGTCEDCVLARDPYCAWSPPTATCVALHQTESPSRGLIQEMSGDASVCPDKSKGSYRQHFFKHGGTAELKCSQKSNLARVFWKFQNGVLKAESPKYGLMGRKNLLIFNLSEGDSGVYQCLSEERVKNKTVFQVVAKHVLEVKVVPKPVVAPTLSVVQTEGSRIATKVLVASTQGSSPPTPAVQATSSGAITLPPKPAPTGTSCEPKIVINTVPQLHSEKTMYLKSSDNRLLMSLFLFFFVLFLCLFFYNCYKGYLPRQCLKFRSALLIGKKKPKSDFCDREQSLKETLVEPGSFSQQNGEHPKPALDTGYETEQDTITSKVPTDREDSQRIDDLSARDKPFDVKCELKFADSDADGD

T2: mouse SEMA4D, full length, on CHO-K1 cells (CHO-K1 mSEMA4D) (mouse, UniProt O09126 24-861)
T2 construct: whole, on cells; also called murine SEMA4D recombinant cells
T2 sequence (looked up): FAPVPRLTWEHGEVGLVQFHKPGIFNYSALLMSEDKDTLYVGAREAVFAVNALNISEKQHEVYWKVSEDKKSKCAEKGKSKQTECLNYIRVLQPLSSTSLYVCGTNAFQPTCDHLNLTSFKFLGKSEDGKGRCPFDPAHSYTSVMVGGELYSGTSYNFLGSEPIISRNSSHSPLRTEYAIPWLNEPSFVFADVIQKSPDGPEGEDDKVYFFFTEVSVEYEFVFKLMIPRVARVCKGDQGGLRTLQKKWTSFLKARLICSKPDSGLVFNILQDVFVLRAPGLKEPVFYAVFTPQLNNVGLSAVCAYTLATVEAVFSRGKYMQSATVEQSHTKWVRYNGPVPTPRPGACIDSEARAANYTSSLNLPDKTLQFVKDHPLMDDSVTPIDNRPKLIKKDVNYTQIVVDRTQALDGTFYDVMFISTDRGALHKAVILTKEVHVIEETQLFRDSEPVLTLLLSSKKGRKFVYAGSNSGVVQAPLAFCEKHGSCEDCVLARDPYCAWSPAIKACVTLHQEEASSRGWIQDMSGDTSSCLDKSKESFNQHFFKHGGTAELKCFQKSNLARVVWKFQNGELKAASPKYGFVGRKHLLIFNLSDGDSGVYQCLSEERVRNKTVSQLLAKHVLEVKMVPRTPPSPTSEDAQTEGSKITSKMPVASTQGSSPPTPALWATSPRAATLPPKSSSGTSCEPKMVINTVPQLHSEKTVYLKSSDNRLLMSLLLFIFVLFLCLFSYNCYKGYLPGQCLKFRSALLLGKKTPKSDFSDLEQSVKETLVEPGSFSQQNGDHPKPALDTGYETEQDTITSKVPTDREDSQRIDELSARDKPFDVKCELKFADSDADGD

B1: 32C8F10 (antibody, V domains shown)
VH: EVQLQQSGAELVRPGASVKLSCTASGFNIKDEYIHWVKQRPEQGLEWIGWIDPANGHTEYASRFQAKATITADTSSNTAYLQLSSLTSEDTAVYYCTTGDYDGFAYWGQGTLVTVST
VL: QIVLTQSPAIMSASPGEKVTISCSARSSVSYMYWYQQKPGSSPKPWIYRTSNLASGVPARFSGSGSGTSYSLTISSMEAEDAATYYCQHYHTYPYTFGGGTKLEIK
notes: Mouse monoclonal antibody purified from hybridoma supernatant on protein A
B2: 31C11G2 (antibody, V domains shown)
VH: B1 VH with A105V
VL: B1 VL with S22F
notes: as for B1
B3: 31G10C5 (antibody, V domains shown)
VH: B1 VH with E32D, T58I, R63N, A105T
VL: B1 VL
notes: as for B1
B4: 37C4F7 (antibody, V domains shown)
VH: EFQLQQSGPEVVKPGASVKISCKASGYSFTDYNMNWMKQSKGKSLEWIGVINPNYGTTTYNQNFKGKATLTVDQSSSTAYMQLNSLTSEDSAVYYCARDMYYVYAYYTMDYWGQGTSVTVSS
VL: DVVMTQTPLSLPVSLGDQASISCRSSQSLVHSNGHTYLHWYLQRPGQSPTLLIYKVSNRFSGVPDRFSGSGSGTDFTLKISRVEAEDLGVYFCSQGTHVPWTFGGGTKLEIK
notes: as for B1
B5: 38H2E3 (antibody, V domains shown)
VH: B4 VH with N52S, N54D, G66D, R98K, Q114H
VL: B4 VL with F67V, W101R
notes: as for B1
B6: 37F11F9 (antibody, V domains shown)
VH: EVQLQQSGPVLVKPGASVKMSCKASGYTFTDYYMNWVKQSHGKSLEWIGLINPYSGGSTFNQKFKAKATLTVDKSSSSAYMDLNSLTSEDSAVYYCARVGDGYYGVTHGMDYWGQGTSVTVSS
VL: DIVMTPSQKFMSTTVGDRVSITCKASQNVGTAVAWYQQKPGQSPTILIYSASNRYTGVPDRFTGSGSGTDFTLTISNMKSEDLADYFCQQYYIYPFTFAAGTKLELK
notes: as for B1
B7: 42B7G2 (antibody, V domains shown)
VH: QVQLQQSGAELARPGASVKLSCKASGYTFTDYGISWVKQRTGQGLEWIGEIYLRNDNSYYNEKFKGKATLTADKSSNTAYMELRSLTSEDSAVYFCARWGDHGNNYEDAMDYWGQGTSVTVSS
VL: DIVLTQSPASLAMSLGKRATISCRASESVSIIGSNLIHWYQQKPGQPPKLLIYHASNLETGVPARFSGSGSRTDFTLTIDPVEEDDVAIYYCLQSRKVPYTFGGGTKLEIK
notes: as for B1

Molecular target: T3, monkey SEMA4D, full length, on CHO-K1 cells (CHO-K1 cSEMA4D) (monkey)
T3 construct: whole, on cells; also called monkey SEMA4D recombinant cells
Assay: FACS, CHO-K1 cSEMA4D cells; Ab 2.67 nM
Procedure: (§1) After the cells were counted, they were diluted with PBS to 2×10⁶ cells per milliliter. After washing, 100 μL of diluted and purified leading antibodies was added to each well and the plate was incubated for 1 hour on ice. […] Cells were washed 2 times by centrifugation with FACS buffer. The cells were suspended with 200 μL of FACS buffer, FACS (FACS Verse, purchased from BD) was used to detect and analyze the results.

| MFI | Binder |
| --- | --- |
| 4920 | B1 |
| 4420 | B2 |
| 4540 | B3 |
| 1940 | B4 |
| 1750 | B5 |
| 2170 | B6 |
| 2640 | B7 |

Molecular target: T1, human SEMA4D, full length, on CHO-K1 …
Assay: FACS, CHO-K1 hSEMA4D cells; Ab 0.00427 nM
Procedure: The medium was aspirated, the cells were washed once with PBS buffer (purchased from Invitrogen), and then treated with cell dissociation fluid (TrypLE™ Express Enzyme, purchased from Life technology), and the cells were collected. After the cells counted, the cells were washed once with PBS phosphate buffer, and diluted to 3×10⁶ cells per milliliter, and added to the 96-well FACS reaction plate as 100 μL per well. 2% (w/w) fetal calf serum was added to PBS phosphate buffer as FACS buffer, with which the cells were washed once by centrifugation at 2000 rpm 4° C. 100 μL of diluted and purified leading antibodies was added to each well and the plate was incubated for 1 hour on ice. […] Cells were washed 2 times by centrifugation with FACS buffer. The cells were suspended with 200 μL of FACS buffer, and FACS (FACS Verse, purchased from BD) was used to detect and analyze the results.

| MFI | Binder |
| --- | --- |
| 86.2 | B1 |
| 87.3 | B2 |
| 85.5 | B3 |
| 45.4 | B4 |
| 45.4 | B5 |
| 51 | B6 |
| 68.9 | B7 |

Molecular target: T3, monkey SEMA4D, full length, on CHO-K1 …
Assay: FACS, CHO-K1 cSEMA4D cells; Ab 66.7 nM
Procedure: as §1

| MFI | Binder |
| --- | --- |
| 5780 | B1 |
| 4370 | B2 |
| 4600 | B3 |
| 2900 | B4 |
| 2890 | B5 |
| 2520 | B6 |
| 2670 | B7 |

Molecular target: T2, mouse SEMA4D, full length, on CHO-K1 …
Assay: FACS, CHO-K1 mSEMA4D cells; Ab 0.000853 nM
Procedure: as §1

| MFI | Binder |
| --- | --- |
| 30.4 | B1 |
| 30.9 | B2 |
| 30.1 | B3 |
| 30.2 | B4 |
| 30.1 | B5 |
| 29.7 | B6 |
| 31.1 | B7 |
